Assay results as given in paper PMC8287548.

How the values were obtained:
[1] = biological target: SpyCatcher-HPF (not stated | Helicobacter pylori); experiment: covalent conjugation
[2] = biological target: SpyCatcher-HPF (not stated | Helicobacter pylori); experiment: SPR

SpyTag-RBD (from UniProt P0DTC2 319-541)
conjugation efficiency [1]: < 40%
Kd [2]: 2680 nM
